# How the values were obtained:
# HUVEC [1] = test: HUVEC sprout formation bead assay; format: cell-based
# Experimental: (§1) Recombinant human SPARC and genetically engineered variants were expressed and purified using HEK 293 cells maintained in hollow fiber bio-reactors. The angiogenic activity of rhSPARC and its variants was evaluated using a HUVEC tube formation assay and a HUVEC sprout formation bead assay.
# (§2) In the HUVEC tube formation assay, rhSPARC was pro-angiogenic at 10 μg/mL and anti-angiogenic at 100 μg/mL. […] Additional rhSPARC variants with deletions and single/double amino acid substitutions tested in these assays included: Q3 deletion (BIO2), an inversion of the putative angiogenic domain (BIOS), a double K>Q substitution in the proposed angiogenic domain (BIO11), the genetic ablation of the putative catephsin K recognition sites (BIO8), and a proteolytic degradation product of rhSPARC. Terminal amino acid analysis indicated the angiogenic activity is localized to SEQ ID NO: 1.
# HUVEC [2] = test: HUVEC (3-D) tube formation assay; format: cell-based; settings: for angiogenic activity: FIG. 2
# Experimental: as §1, §2
molecule,measurement,setting,value
"rhSPARC: Recombinant human SPARC expressed and purified using HEK 293 cells (protein, UniProt P09486 18-303, looked up) SPARC: APQQEALPDETEVVEETVAEVTEVSVGANPVQVEVGEFDDGAEETEEEVVAENPCQNHHCKHGKVCELDENNTPMCVCQDPTSCPAPIGEFEKVCSNDNKTFDSSCHFFATKCTLEGTKKGHKLHLDYIGPCKYIPPCLDSELTEFPLRMRDWLKNVLVTLYERDEDNNLLTEKQKLRVKKIHENEKRLEAGDHPVELLARDFEKNYNMYIFPVHWQFGQLDQHPIDGYLSHTELAPLRAPLIPMEHCTTRFFETCDLDNDKYIALDEWAGCFGIKQKDIDKDLVI",blood vessel maturity on addition of the protein,HUVEC [1],more mature blood vessels well supported by pericytes
same,angiogenic behavior over concentration,"HUVEC [2]; HUVEC 3-D tube formation, concentrations up to 100 ug/ml, FIG. 4",increases as the concentration approaches 10 ug/ml and drops off as it approaches 100 ug/ml
same,angiogenic activity,HUVEC [2]; at 10 μg/mL,pro-angiogenic
same,angiogenic activity,HUVEC [2]; at 100 μg/mL,anti-angiogenic
